# The DeepSol protein solubility set
# Assay: soluble on expression in E. coli; label from the status in PepcDB or PDB records
row,Sequence,soluble on expression in E. coli
1,APVPTYQTLIVRPGDLQQSVLATGKLDALRKVDVGAQVSGQLKTLSVAIGDKVKKDQLLGVIDPEQAENQIKEVEATLMELRAQRQQAEAELKLARVTYSRQQRLAQTQAVSQQDLDNAATEMAVKQAQIGTIDAQIKRNQASLDTAKTNLDYTRIVAPMAGEVTQITTLQGQTVIAAQQAPNILTLADMSAMLVKAQVSEADVIHLKPGQKAWFTVLGDQLTRYEGQIKDVLPTPEKVNDAIFYYARFEVPNPNGLLRLDMTAQVHIQLTDVKNVLTIPLSALGDPVGDNRYKVKLLRNGETREREVTIGARNDTDVEIVKGLEAGDEVVIGEAKPGAAQ,soluble
2,AQARMGDSRDLCPHLDSIGEVTKEDLLLKSKGTCQSCGVTGPNLWACLQVACPYVGCGESFADHSTIHAQAKKHNLTVNLTTFRLWCYACEKEVFLEQRLAAPLLGSSSKFSEQDSPPPSHPLKAVPIAVADEGESESEDDDLKPRGLTGMKNLGNSCYMNAALQALSNCPPLTQFFLECGGLVRTDKKPALCKSYQKLVSEVWHKKRPSYVVPTSLSHGIKLVNPMFRGYAQQDTQEFLRCLMDQLHEELKEPVVATVALTEARDSDSSDTDEKREGDRSPSEDEFLSCDSSSDRGEGDGQGRGGGSSQAETELLIPDEAGRVISEKERMKDRKFSWGQQRTNSEQVDEDADVDTAMAALDQPAEAQPPSPRSSSPCRTPEPDNDAHLRSSSRPCSPVHHHEGHAKLSSSPPRASPVRMAPSYVLKKAQVLSAGSRRRKEQRYRSVISDIFDGSILSLVQCLTCDRVSTTVETFQDLSLPIPGKEDLAKLHSAIYQNVPAKPGACGDSYAAQGWLAFIVEYIRRFVVSCTPSWFWGPVVTLEDCLAAFFAADELKGDNMYSCERCKKLRNGVKYCKVLRLPEILCIHLKRFRHEVMYSFKINSHVSFPLEGLDLRPFLAKECTSQITTYDLLSVICHHGTAGSGHYIAYCQNVINGQWYEFDDQYVTEVHETVVQNAEGYVLFYRKSSEEAMRERQQVVSLAAMREPSLLRFYVSREWLNKFNTFAEPGPITNQTFLCSHGGIPPHKYHYIDDLVVILPQNVWEHLYNRFGGGPAVNHLYVCSICQVEIEALAKRRRIEIDTFIKLNKAFQAEESPGVIYCISMQWFREWEAFVKGKDNEPPGPIDNSRIAQVKGSGHVQLKQGADYGQISEETWTYLNSLYGGGPEIAIRQSVAQPLGPENLHGEQKIEAETRAV,soluble
3,AQSSTDVIDQLFTALSGWFHGSEEKLGEFRGCFFINTSAEFSDDSGEIATYCRHHKQQVRELIQRYLKSDNTSLLDAICIMKEGAITTAYMTKEYDDVTKKCVEILHKL,not soluble
4,ARGHRHTCKVMVLKEEAAGSERALALDMREGQRVFHSLIVHFENDIPVQIEDRFVNAQVAPDYLKQDFTLQTPYAYLSQVAPLTEGEHVVEAILAEADECKLLQIDAGEPCLLIRRRTWSGRQPVTAARLIHPGSRHRLEGRFTK,soluble
5,ARKRAAGGEPRGRELRSQKSKAKSKARREEEEEDAFEDEKPPKKSLLSKVSQGKRKRGCSHPGGSADGPAKKKVAKVTVKSENLKVIKDEALSDGDDLRDFPSDLKKAHHLKRGATMNEDSNEEEEESENDWEEVEELSEPVLGDVRESTAFSRSLLPVKPVEIEIETPEQAKTRERSEKIKLEFETYLRRAMKRFNKGVHEDTHKVHLLCLLANGFYRNNICSQPDLHAIGLSIIPARFTRVLPRDVDTYYLSNLVKWFIGTFTVNAELSASEQDNLQTTLERRFAIYSARDDEELVHIFLLILRALQLLTRLVLSLQPIPLKSATAKGKKPSKERLTADPGGSSETSSQVLENHTKPKTSKGTKQEETFAKGTCRPSAKGKRNKGGRKKRSKPSSSEEDEGPGDKQEKATQRRPHGRERRVASRVSYKEESGSDEAGSGSDFELSSGEASDPSDEDSEPGPPKQRKAPAPQRTKAGSKSASRTHRGSHRKDPSLPVASSSSSSSKRGKKMCSDGEKAEKRSIAGIDQWLEVFCEQEEKWVCVDCVHGVVGQPLTCYKYATKPMTYVVGIDSDGWVRDVTQRYDPVWMTVTRKCRVDAEWWAETLRPYQSPFMDREKKEDLEFQAKHMDQPLPTAIGLYKNHPLYALKRHLLKYEAIYPETAAILGYCRGEAVYSRDCVHTLHSRDTWLKKARVVRLGEVPYKMVKGFSNRARKARLAEPQLREENDLGLFGYWQTEEYQPPVAVDGKVPRNEFGNVYLFLPSMMPIGCVQLNLPNLHRVARKLDIDCVQAITGFDFHGGYSHPVTDGYIVCEEFKDVLLTAWENEQAVIERKEKEKKEKRALGNWKLLAKGLLIRERLKRRYGPKSEAAAPHTDAGGGLSSDEEEGTSSQAEAARILAASWPQNREDEEKQKLKGGPKKTKREKKAAASHLFPFEKL,not soluble
6,ARQVICWCFTLNNPLSPLSLHDSMKYLVYQTEQGEAGNIHFQGYIEMKKRTSLAGMKKLIPGAHFEKRRGTQGEARAYSMKEDTRLEGPWEYGE,soluble
7,ARSAYSYIREAWKRPKEGQIAELMWHRMQEWRNEPAVVRIERPTRLDRARSLGYKAKQGIIVVRVAIRKGSSRRTRFNKGRRSKRMMVNRITRKKNIQRIAEERANRKFPNLRVLNSYSVGEDGRHKWHEVILIDPDHPAIKSDDQLSWISRTRHRLRTFRGLTSAGRRCRGLRGQGKGSEKVRPSLRVNGAKA,soluble
8,ARVLVVGDVMLDRYWFGEVDRISPEAPVPVVRVARREDRLGGAANVARNVAALGAQVTLIGVVGADEVGLRIERMAAEEGVRTDLVSDTEHPTTLKMRVLGRQQQLLRVDFEQHPEPAALDGISAAVARQLAQHDIVVLSDYAKGVLDRVESIIAAAVGHSLPVLVDPKGDHYERYRGATLVTPNRAEMREAVGRWKTEDELAERAQRLRLDLDLEALLVTRSEQGMTLFTDAGRDHADAAAHEVYDVSGAGDTVLATLAVMRAVGLSWGDAMRWANRAGGIVVGKLGTSVVTAAEL,not soluble
9,ASIFGVFDIKTDAVELRKKALELSRLMRHRGPDWSGIYASDNAILAHERLSIVDVNAGAQPLYNQQKTHVLAVNGEIYNHQALRAEYGDRYQFQTGSDCEVILALYQEKGPEFLDDLQGMFAFALYDSEKDAYLIGRDHLGIIPLYMGYDEHGQLYVASEMKALVPVCRTIKEFPAGSYLWSQDGEIRSYYHRDWFDYDAVKDNVTDKNELRQALEDSVKSHLMSDVPYGVLLSGGLDSSIISAITKKYAARRVEDQERSEAWWPQLHSFAVGLPGSPDLKAAQEVANHLGTVHHEIHFTVQEGLDAIRDVIYHIETYDVTTIRASTPMYLMSRKIKAMGIKMVLSGEGSDEVFGGYLYFHKAPNAKELHEETVRKLLALHMYDCARANKAMSAWGVEARVPFLDKKFLDVAMRINPQDKMCGNGKMEKHILRECFEAYLPASVAWRQKEQFSDGVGYSWIDTLKEVAAQQVSDQQLETARFRFPYNTPTSKEAYLYREIFEELFPLPSAAECVPGGPSVACSSAKAIEWDEAFKKMDDPSGRAVGVHQSAYK,soluble
10,ASLDSEVELLPHTSFAESLGPWSLYGTSEPVFADGRMCVDLPGGQGNPWDAGLVYNGVPVGEGESYVLSFTASATPDMPVRVLVGEGGGAYRTAFEQGSAPLTGEPATREYAFTSNLTFPPDGDAPGQVAFHLGKAGAYEFCISQVSLTTSAT,soluble
11,ASMTGGQQMGRDPGMTVTSQVKPEDEMDNWGRLILDGVSYSDMVGARDRPKEITWFDYWMSLANEYEQEAERKVALGHDLSAGELLMSAALCAQYAQFLWFDERRQKGQARKVELYQKAAPLLSPPAERHELVVDGIPMPVYVRIPEGPGPHPAVIMLGGLESTKEESFQMENLVLDRGMATATFDGPGQGEMFEYKRIAGDYEKYTSAVVDLLTKLEAIRNDAIGVLGRSLGGNYALKSAACEPRLAACISWGGFSDLDYWDLETPLTKESWKYVSKVDTLEEARLHVHAALETRDVLSQIACPTYILHGVHDEVPLSFVDTVLELVPAEHLNLVVEKDGDHCCHNLGIRPRLEMADWLYDVLVAGKKVAPTMKGWPLEHHHHHH,soluble
12,ATFTSLANQAASREDYEFHRTVLLASGGLLLSGDPLPEITPFASKTLAKLMLRQRRSQESAKFTALSLSHAFLKLTDKNDLHCLFNYANHNATEFTLTADQPVDWYDYWTGEKLNQDPCQLLLVSVDRGLNAKAIVTA,not soluble
13,ATQFTASILSLYNSEQMLQKTDPMSVISSAMVAATLDLPIDKNLGYAWIVPYGGKAQFQLGYKGYIQLALRTGQYKSINCIPIHEGELQKWNPLTEEIEIDFEKRESDAVIGYAAYFELINGFRKTVYWTKAQVEKHKKKFSKSDFGWKNDWDAMALKTVLKAVLSKWGILSVEMQKAVIEEDETRERIDITNEADSSEIIDSE,not soluble
14,ATSDSNMLLNYVPVYVMLPLGVVNVDNVFEDPDGLKEQLLQLRAAGVDGVMVDVWWGIIELKGPKQYDWRAYRSLLQLVQECGLTLQAIMSFHQCGGNVGDIVNIPIPQWVLDIGESNHDIFYTNRSGTRNKEYLTVGVDNEPIFHGRTAIEIYSDYMKSFRENMSDFLESGLIIDIEVGLGPAGELRYPSYPQSQGWEFPGIGEFQCYDKYLKADFKAAVARAGHPEWELPDDAGKYNDVPESTGFFKSNGTYVTEKGKFFLTWYSNKLLNHGDQILDEANKAFLGCKVKLAIKVSGIHWWYKVENHAAELTAGYYNLNDRDGYRPIARMLSRHHAILNFSCLEMRDSEQPSDAKSGPQELVQQVLSGGWREDIRVAGENALPRYDATAYNQIILNARPQGVNNNGPPKLSMFGVTYLRLSDDLLQKSNFNIFKKFVLKMHADQDYCANPQKYNHAITPLKPSAPKIPIEVLLEATKPTLPFPWLPETDMKVDG,soluble
15,AVGNATQPLLVVEDSDEDFSTFQRLLQREGVVNPIYRCITGDQALDFLYQTGSYCNPDIAPRPAVILLDLNLPGTDGREVLQEIKQDEVLKKIPVVIMTTSSNPKDIEICYSYSISSYIVKPLEIDRLTETVQTFIKYWLDIVVLPEMG,soluble
16,AVKVGINGFGRIGRNVFRAALKNPDIEVVAVNDLTDANTLAHLLKYDSVHGRLDAEVSVNGNNLVVNGKEIIVKAERDPENLAWGEIGVDIVVESTGRFTKREDAAKHLEAGAKKVIISAPAKNEDITIVMGVNQDKYDPKAHHVISNASCTTNCLAPFAKVLHEQFGIVRGMMTTVHSYTNDQRILDLPHKDLRRARAAAESIIPTTTGAAKAVALVLPELKGKLNGMAMRVPTPNVSVVDLVAELEKEVTVEEVNAALKAAAEGELKGILAYSEEPLVSRDYNGSTVSSTIDALSTMVIDGKMVKVVSWYDNETGYSHRVVDLAAYIASKGL,soluble
17,AVNGKGMNPDYKAYLMAPLKKIPEVTNWETFENDLRWAKQNGFYAITVDFWWGDMEKNGDQQFDFSYAQRFAQSVKNAGMKMIPIISTHQCGGNVGDDCNVPIPSWVWNQKSDDSLYFKSETGTVNKETLNPLASDVIRKEYGELYTAFAAAMKPYKDVIAKIFLSGGPAGELRYPSYTTSDGTGYPSRGKFQAYTEFAKSKFRLWVLNKYGSLNEVNKAWGTKLISELAILPPSDGEQFLMNGYLSMYGKDYLEWYQGILENHTKLIGELAHNAFDTTFQVPIGAKIAGVHWQYNNPTIPHGAEKPAGYNDYSHLLDAFKSAKLDVTFTCLEMTDKGSYPEYSMPKTLVQNIATLANEKGIVLNGENALSIGNEEEYKRVAEMAFNYNFAGFTLLRYQDVMYNNSLMGKFKDLLGVTPVMQTIVVKNVPTTIGDTVYITGNRAELGSWDTKQYPIQLYYDSHSNDWRGNVVLPAERNIEFKAFIKSKDGTVKSWQTIQQSWNPVPLKTTSHTSSW,soluble
